# According to the DeepSol protein solubility set:
# Assay: soluble on expression in E. coli; label from the status in PepcDB or PDB records
row,Sequence,soluble on expression in E. coli
1,MKEKKLNLKKHLNTVVTLNSDYLNLLDLMQITNANFPIGTFSHSFGVETYIRKDIVFDGESLIKALLLYMNEQLLHGDLLAIYQIFKLLPKQKINAIWEIDQMINFQGLARETREGQRRIGQQMVKIYNELFNCELLVEYAERIKNKKSYGNPAVAFALLAMHLKIDLKTALYTHLYSTVAALTQNCVRAIPLGQVKGQKIIYQLKHVYFDDIVNKVFTLDFKTDFCKNIPGLEIAQMEHEDTPVRLFMSLEHHHHHH,not soluble
2,MKRVVLYIKDKCPHCKDAQRYLDSKGIKYRLCNAKMERGRKELDALGARSVPVLKIGDRLMIGWNHTNFERIYSSKD,not soluble
3,MSLIVKVSPKGSMDQLSQLEVDRLKKSAQSALYQLYRNCSLAVLAAGLKTDNSKALFEQYSDFDIHVLQRERGVKLELINPPEQAFVDGQIITGIQEHLFSVLRDILYISDKYDTLKHINLTNASHITNVVFDILRNARAIAPMKDPNVVVCWGGHSINAIEYQYTREVGYQLGLRELDICTGCGPGAMEGPMKGAAIGHSKQRIKNARYIGLTEPSIIAAEPPNQIVNELVILPDIEKRLEAFVRLGHGIIIFPGGAGTAEELLYILGILLNKENQETPFPLVLTGPSESADYFIKIDEFIAATLGPEAQQKYQIIIDNPAEVARVMKQGMEQVKNHRRTTGDAYQYQWGLKIEPEFQLPFIPTHDVMANLNLHFQSNKAELAANLRKAFSGIVAGNVKSETIKQIEQLGPFHIKGDPHLMELMDNLLGAFVAQHRMKLPGSAYVPCYQIVKEGHHHHHH,soluble
4,ATRVQAAQKEPASDVSDKLEQIREEIAKDPQSVFKYITISPVKKDDAIIGYRVSPGRDAALFNDVGLEPGDIAVQLNGIDLSDPSSSVQLMQVMSDPQELNLTVERDGQQYDIYIQL,not soluble
5,MSLRYFVFATFKVHKDATNSYFSNGDVVVVNRNRTPKYKDFIVYKVGKIFYISRVIGEPNQKVRVMDDILYLNDVFKDEPYIEKMKNAYSEKKDGQMPFTSDFSVETLTRNKESRVPKGSYLVLNDNRQNKNDSRKFGLIKEKDIRGVITFKVYPLSEFGFTASEGHHHHHH,soluble
6,NPGENPKAQKALKQLFDGAQKDDIHLYKISGYRSYPTQVKLYNNYVKRDGKKAADKYSARPGYSEHQTGLTFDVGGVDSDKNLYASFGKTEEGRWIAKNAHNYGFIIRYPKNKESITGYQYEPWHLRYLGKKKATKVYKSGETLEEFVGLK,not soluble
7,MIGKLKKGSSFGGCIRYVTGKDEAKIIASDGVLLGTNAEITQSFELQRQLNPRIKKPVGHIALSFKPEDKPRLTDEFMTKIAIEYMQMMGITKTQFIIIRHHNADNPHCHIVYNRINNESKLISDRNDYRRNEQVTKALKSKYGLTYGTDKSNTNTRKLRNAERAKYEIHNAVKDALKMADSWEKLRSELAKRGVHLEFVYKDKAQTKVQGIRFCKDGYSFKGTQICREYSFGKLNAKFEGTENHVSTRANSAQQYEQGCRKNEQVPFMSENCQDPWDGISSIGLFASANAQTFESFPEDESAKKKKKKRRRGFSL,not soluble
8,MKRIFVQNRELVVPGTLLAQGPYKNGRGTFREGSRIYSTVIGLVDIKGNTIRVIPLEGPYIPEVGDNVIGKIVDVKFSSWVVDIGAPYLANLKIQDFTDEKIDLLRTDLRKFFDIGDIIYGKVKAITEVNNIDLTTKGMPFNGGPLKGGQIVKITPSRVPRVIGRGGSMINMIKKLTMTRIIVGQNGWIWVNGKNEALEKLAIEAILKIDRESHTKGLTDRIKSLLLSRLQELKEKGVIEEIPELEEEPQEETEVNNNDGETRRT,soluble
9,MTDAGSSFCPECGDPVDSVGGDGATRREQSLCDSCYFAAFDLVDAPDTIEVMVCARCGAVHRGNRWVDIGADDYVDVAVAETTEALGVHLEAEDVDWEVRPEKLDDNTVRMHATFTGVVRDTHRTEQVAVTVKVSRQTCQRCGRIAGESYASTVQVRAVGRDPTSEETDRAAELAHRIVADMEATGDREAFVTEIGDAESGTDIKLSTTKIGLKLARKLVEEFGGDFEDHETLITEDDDGNEVYRVTYAVRLPEFVPGDVVDIAADDGGPVLVQSNHGNLKGVRVTTGEPYEASFEDGDSPDARKLGAVADATEATVVTVEDDAAIQILDPDTYEAQTVARPDYVDPDASTVPALKSRAGLHVLPDALEHHHHHH,soluble
10,MGSDKIHHHHHHMQVGTIFGHKNSEGTLVSSAAIIPYESKLASIGMVIVSSQCRGLGLGREVTEACIKATLEDTTLMLIATDEGRPLYERLGFAAVERIHKHLCDDYKEPESIPSMDVTIEELRSNDFRQLVQLDEGAMGVRRSRFLKQRTTQANQSLVAKDKAGNVIGYGLSILGPIHLIIGPIVAPNHEIACLILDRLACQHKGKLRMDVPSGHHTFLQHLQRRGFTEVNTPPVMAKQSAYEPRRNGTLFAIAAQVFG,not soluble
11,MSLSEEDLEKFLIKELTLQGYERLNLSDINDLESNFKLQLQRLNNISFSPTEWESFYRQNITNLKLTFEDKTKMLQSDGFTLTLEKEDGSKKNIILIDRVNPINNHLQVISQLKNENGEFKNRYDVSILVNGLPLVHIELKRRGVNLKEAFNQIRRYQKESFLEGNALYEFVQIFIISNGTLTKYYSNTNEGHHHHHH,soluble
12,MERETPKTPTPTPYTNIYAALNNKKTNDEVASKVTEELNKLKIAEEKDNKIVSREKPEMMSLNTLVEMCSAGEKPTKGKSEKDIRKKKAPVLVDDNQSYVMIGPPSEPVEPPATLSTETSKTNAIEESTVKRSEALSAYIGVATLNDAENHLTRRGEFALYHLFNPNGRLDTITEKLPLMIVYRTTTKKNRHYSIRTTCDQQFFVDCGYPNVRKHYSLNHLVKFYKVRILLPDTIQKQQLTDILQILKQFQTSATCEINPYDTSADSFSWWLE,soluble
13,MGSDKIHHHHHHMVKKREGDEVQSELMRILAEKQERKENIALVTVISSNSPRGCRAGEMMLVDRFGYIIGDGIGDSLLQENAQREAQICINEGISRRVILPSEEGMTEVFINAFCHRDQLIIVGSGNVALNVYRIASIVGYSITVIDNRAETLSRERFPEAKELLLGDIVELLKAYNIDENTSIVLLSYHHEFDEAALLTVIHSPARYIGIMGNKHKVTAYFSKLNELNIAEELISRVHVPVGIDIGGERAAEIALAVVAEMQAIKYGRAGGFRILQSEITGKVERDELF,not soluble
14,MGSDKIHHHHHHMVKLFREKKDMGSPKIQNFKRQTVLHKGQRTRLPATYIAPEDVSIWDIIRPNLGKDFSRFTVPVFMNEPLSFLQRLSENVQYNYLLEKAAKCSDDMERIEFYEFRFFFNWKKLKHQMKLSNSAHKTGFTFANSINYVAAFALATVSANHKRLSKPFNPLLLETFELERNGVRFLAEQVSHHPPISAVYAESDEFTVEGTVEPTLGFWMTKLLANPHAHLKLTFKKTGETYSWSAPKCAIYNVIMGKMYMNFTSHMKIESSGTYDAVFSFDNKGYYNHKGGDVHVEGHIFEGKNKIKALYGNWTLFLASCDNEDFKHHRKEYLRMFNETVSEKDQGPVVPGSKILWVSNQIPKLFDDQFHFTNFTLSLNEMYPGMSDTVAPTDSRRRKDMKALEDGKNDEAEEFKHKYEEEQRERRTTKTGDVPMWFAKNDEGHWAYKGGYWDRDYSNCLELFESLENSSTNSSNSSISSVD,not soluble
15,MSEEKQTVEQNETEEQEIIEEQAAADEQQEETNESELLQNQINELQGLLEEKENKLLRVQADFENYKRRSRLEMEASQKYRSQNIVTDLLPALDSFERALQVEADNEQTKSLLQGMEMVHRQLVEALKKEGVEAIEAVGQEFDPNLHQAVMQAEDENYGSNIVVEEMQKGYKLKDRVIRPSMVKVNQ,not soluble
16,MDNHGILESLLFTAGDEGLDEKQLLEILDMSKDQLVELIENYSSHGLMIQRFGMTYVLTTKKEAATYIEQLIEQKSQMKLSQAAMEVLSIIAYNQPLSRSDIELIRSINSDGAVKTLIAKGLVEAKVVNEQRSQQLITTDLFLNVFGISNIEDLPTTEEDDEEMDAFFSNLVNQKGENND,not soluble
17,MYDCAAPSLSTGRNTMNHTAELEKALTDLRHITGISMEIHAETEEEVTKALEQLKLLSSAYKEKYNKIHFLQSLMTDSIPTYNVYDRAARLHIAPEEPRILYLLETSHSLDEDISEILKNLFPSQSGAFRIPLTEASCAILCPVRSLADSSQETVHLTARMIVDTVNAEALARVRVSYSKTLHNLLDLSTAFRETSLALKVGKLFYSEQTVFPYNRLGIGRLIYRLPTSLCENFLHEIFGEEIPQALDEETTATVNKFLQNNLNIAETSRQLHMHRNTLIYRLEQIEKRTGLDLRQFEDAMTFKIASMVMNYLYTERNIPHE,not soluble
